Reference: paper PMC5012862, “Structural characterization of encapsulated ferritin provides insight into iron storage in bacterial nanocompartments” (eLife, 2016)

Experiments:
[1] = biological target: EncFtnsH H65A mutant (Rhodospirillum rubrum) (UniProt Q2RVS1); test: crystal structure; hanging drop, 292 K, 0.14 M calcium acetate, 15% PEG 3350; cryoprotectant with 1 mM FeSO4; three decamers in the asymmetric unit; mutants crystallized in the same manner
[2] = biological target: EncFtnsH H65A mutant (Rhodospirillum rubrum) (UniProt Q2RVS1); test: native MS; nESI, 100 mM ammonium acetate pH 8.0, about 5 uM protein; apo protein made in minimal medium, no Fe2+ added
[3] = biological target: the molecule itself; test: SEC; size-exclusion chromatography of the purified full-length EncFtn; column and buffer not told for this protein
[4] = biological target: the molecule itself; test: SEC; preparative Superdex 200 16/60 after nickel affinity; 50 mM Tris-HCl pH 8.0, 150 mM NaCl; protein from E. coli grown in SeMet medium + 1 mM Fe(NH4)2(SO4)2, in MM, or in MM + 1 mM Fe(NH4)2(SO4)2
[5] = biological target: the molecule itself; test: as above; remark: listed apart in the source
[6] = biological target: the molecule itself; test: SEC; analytical gel filtration of EncFtnsH monomer at 700 uM, compared with 90 uM; no metal added
Q2RVS1 = test: SEC; analytical gel filtration, Superdex 200 PC 3.2/30 (Table 3 caption: 10/300 GL), 15 C, GF buffer; 90 uM EncFtnsH monomer or decamer fractions, alone or after 2 h at room temperature with one molar equivalent of metal salt

“EncFtnsH H65A mutant (from UniProt Q2RVS1 1-96) (domain or fragment)” gave a stoichiometry N [1] of 10 and a stoichiometry N [2] of 2.

B1: Rhodospirillum rubrum EncFtn, full-length sequence (140 amino acids), purified alone (natural protein, UniProt Q2RVS1 1-140, looked up)
chain: MAQSSNSTHEPLEVLKEETVNRHRAIVSVMEELEAVDWYDQRVDASTDPELTAILAHNRDEEKEHAAMTLEWLRRNDAKWAEHLRTYLFTEGPITAIEAADTAGEGSGGDAAKGATAQGDGSLGIGSLKGEAALARPPRL
notes: primers are in Supplementary file 2; also called encapsulated ferritin; source: E. coli, recombinant, purified (SEC)
B1: binds [3].

B2: EncFtnsH: truncated C-terminal hexahistidine-tagged variant of Rhodospirillum rubrum encapsulated ferritin (EncFtn, Rru_A0973), amino acids 1-96 plus the tag (domain or fragment, UniProt Q2RVS1 1-96, looked up)
chain: MAQSSNSTHEPLEVLKEETVNRHRAIVSVMEELEAVDWYDQRVDASTDPELTAILAHNRDEEKEHAAMTLEWLRRNDAKWAEHLRTYLFTEGPITA
notes: amino acids 1-96 of the 140-residue protein; Monomer predicted mass 13,194.53 Da with the tag; also called wild-type EncFtnsH; WT; source: for crystals anion exchange and SEC; not shown: His6, C-terminal, kept
For B2, the “stoichiometry N” value [4] was 10, the “decamer/monomer peak area ratio (cells grown in MM + 1 mM Fe(NH4)2(SO4)2)” value [5] was 4.5 and the “stoichiometry N” value [6] was 2. The decamer/monomer peak area ratio (decamer fractions, no metal added, day 1) (Q2RVS1) was 11.2, the decamer/monomer peak area ratio (monomer fractions, no metal added, day 1) (Q2RVS1) was 0.1 and the decamer/monomer peak area ratio (monomer fractions, no metal added, day 2) (Q2RVS1) was 0.4. For the same molecule, the decamer/monomer peak area ratio (monomer fractions, no metal added, day 3) (Q2RVS1) was 0.3, the decamer/monomer peak area ratio (with Ca acetate) (Q2RVS1) was 0.2 and the decamer/monomer peak area ratio (with CoCl2) (Q2RVS1) was 1.2. For the same molecule, the decamer/monomer peak area ratio (with Fe(NH4)2(SO4)2) (Q2RVS1) was 0.8, the decamer/monomer peak area ratio (with FeCl3) (Q2RVS1) was 0.1 and the decamer/monomer peak area ratio (with FeSO4-HCl) (Q2RVS1) was 1. It also gave a decamer/monomer peak area ratio (with MgSO4) (Q2RVS1) of 0.2, a decamer/monomer peak area ratio (with MnCl2) (Q2RVS1) of 0.1 and a decamer/monomer peak area ratio (with ZnSO4) (Q2RVS1) of 2.3.

B3: EncFtnsH E32A mutant (domain or fragment, Rhodospirillum rubrum, UniProt Q2RVS1 1-96, looked up)
chain: MAQSSNSTHEPLEVLKEETVNRHRAIVSVMEALEAVDWYDQRVDASTDPELTAILAHNRDEEKEHAAMTLEWLRRNDAKWAEHLRTYLFTEGPITA
notes: amino acids 1-96, with E32A; Single mutant of EncFtnsH; source: E. coli BL21(DE3) grown in MM or MM supplemented with iron; purified (Superdex 200 SEC); not shown: His6, C-terminal, kept
With B3 the “stoichiometry N” value [4] was 10.

B4: EncFtnsH E62A mutant (domain or fragment, Rhodospirillum rubrum, UniProt Q2RVS1 1-96, looked up)
chain: MAQSSNSTHEPLEVLKEETVNRHRAIVSVMEELEAVDWYDQRVDASTDPELTAILAHNRDEAKEHAAMTLEWLRRNDAKWAEHLRTYLFTEGPITA
notes: amino acids 1-96, with E62A; Single mutant of EncFtnsH; source: E. coli BL21(DE3) grown in MM or MM supplemented with iron; purified (Superdex 200 SEC); not shown: His6, C-terminal, kept
For B4, the “stoichiometry N” value [4] was 10.
